Experimental findings from article PMC3121799, “Mechanism of Heparin Acceleration of Tissue Inhibitor of Metalloproteases-1 (TIMP-1) Degradation by the Human Neutrophil Elastase” (PLoS ONE, 2011) are described below.

Square brackets hold non-standard residues; d marks the D form. Ends that are not written are not given here. * marks the point of attachment. EDDnp = O=[N+]([O-])c1ccc(NCCN*)c([N+](=O)[O-])c1; 2Abz = Nc1ccccc1C(=O)O

For one series, the target named is His57 (UniProt position 70, VMSAAHCVANV). The series is described as follows: kinetics. Conditions: 37 °C, Constant ionic strength buffer system containing 140 mM NaCl, 25 mM glycine, 25 mM acetic acid, 25 mM Mes, 75 mM Tris, 0.05% (v/v) Triton X-100, pH adjusted with HCl or NaOH.
Another series has as its system Nterm16. The series is described as follows: kinetics. The following applies: 37 °C, Constant ionic strength buffer system containing 140 mM NaCl, 25 mM glycine, 25 mM acetic acid, 25 mM Mes, 75 mM Tris, 0.05% (v/v) Triton X-100, pH adjusted with HCl or NaOH.
The target of series [1] is T1, Human neutrophil elastase (human, UniProt P08246 30-267). Nature of the series: stopped-flow fluorescence kinetics of substrate hydrolysis (pre-steady-state, fit to a three-step mechanism with DynaFit IV); both in solution; 3.8 µM FRET-peptide, 12.6 nM HNE, 25°C, 10 mM Tris-HCl pH 7.4, 100 mM NaCl, no heparin. Conditions: both partners purified.
T1 sequence (P08246 30-267): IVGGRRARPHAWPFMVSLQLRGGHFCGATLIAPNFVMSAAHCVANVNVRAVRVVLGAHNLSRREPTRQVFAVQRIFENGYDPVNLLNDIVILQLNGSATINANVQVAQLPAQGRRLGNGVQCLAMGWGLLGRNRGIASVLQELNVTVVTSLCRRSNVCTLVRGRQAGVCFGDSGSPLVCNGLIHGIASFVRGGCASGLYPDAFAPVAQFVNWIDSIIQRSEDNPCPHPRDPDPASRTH
Series [2] addresses T1, Human neutrophil elastase. Nature of the series: stopped-flow fluorescence kinetics of substrate hydrolysis (pre-steady-state, fit to a three-step mechanism with DynaFit IV); both in solution; 3.8 µM FRET-peptide, 12.6 nM HNE (12.7 nM in the methods), 25°C, 10 mM Tris-HCl pH 7.4, 100 mM NaCl, with 50 µM heparin. Conditions: both partners purified.
[3] abbreviates: Free enzyme, no heparin (control).
[4] abbreviates: Heparin-bound enzyme (50 µM 14 kDa heparin).

In general, pKa refers to the negative logarithm of the acid dissociation constant. A high value points to a weaker acid or stronger base. As for “Human neutrophil elastase (HNE; leukocyte elastase, EC 3.4.21.37) (Homo sapiens)”, the pKa with His57 (setting [3]) was 6.71±0.05; with His57 (setting [4]) it was 7.04±0.07; in the series on Nterm16 (setting [3]), 8.93±0.05; in the series with Nterm16 (setting [4]) it was 9.60±0.07.

B1: FRET-peptide Abz-AMESVMGYFHRSQ-EDDnp (peptide)
peptide: [2Abz]AMESVMGYFHRSQ-EDDnp
notes: the peptide has Met where TIMP-1 has Cys70 (cleaved bond Val-Met); also called FRET-peptide substrate; FRET substrate; source: synthetic peptide (solid phase, Fmoc; HPLC purified)
What is called koff is a measure of how fast the partners let go of each other. In general, kon refers to the second-order rate constant of association. Read a high kon as fast association. In series [1], B1 had a koff of 0.25 s⁻¹ and a kon of 350000 M⁻¹ s⁻¹. In series [2], this molecule gave a koff of 0.081 s⁻¹ and a kon of 820000 M⁻¹ s⁻¹.
